Measured values as given in the supplement of paper PMC12338614.
± gives the uncertainty stated by the source.

B1: library; numbered along this chain (parent)
chain: MEVVDPQQLGMFTEGELMSVGMDTFIHRIDSTEVIYQPRRKRAKLIGKYLMGDLLGEGSYGKVKEVLDSETLCRRAVKILKKKKLRRIPNGEANVKKEIQLLRRLRHKNVIQLVDVLYNEEKQKMYMVMEYCVCGMQEMLDSVPEKRFPVCQAHGYFCQLIDGLEYLHSQGIVHKDIKPGNLLLTTGGTLKISDLGVAEALHPFAADDTCRTSQGSPAFQPPEIANGLDTFSGFKVDIWSAGVTLYNITTGLYPFEGDNIYKLFENIGKGSYAIPGDCGPPLSDLLKGMLEYEPAKRFSIRQIRQHSWFRKKHPPAEAPVPIPPSPDTKDRWRSMTVVPYLEDLHGADEDEDLFDIEDDIIYTQDFTVPGQVPEEEASHNGQRRGLPKAVCMNGTEAAQLSTKSRAEGRAPNPARKACSASSKIRRLSACKQQ

Variants of: B1
Test: STK11 functional score (HeLa growth suppression), rescaled enrichment; synonymous median = 1, nonsense median = 0 (normalised score)
Conditions: with HeLa; variant type: missense
Summary of the method: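 In HeLa, Bxb1 integrated POPCode codon-randomised libraries of codon-optimised STK11 at an AAVS1 landing pad; three regions were each transfected three times. Integrants, marked as BFP-negative and mCherry-positive, were FACS-sorted 4–5 days after electroporation and expanded for about two weeks before tiled gDNA amplicons were sequenced on NextSeq (~2 million reads per tile). Each functional score is a post/pre-selection log ratio corrected to wild type, rescaled to the synonymous and nonsense medians, and merged across codons and replicate transfections, with error estimated by bootstrapping.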
K312Y showed an STK11 functional score of 1.2 ± 0.1.
In the case of G15F, the STK11 functional score is reported as 1.05 ± 0.1.
For P222F, the STK11 functional score was 0.44 ± 0.099.
P222D was tested, and the STK11 functional score was -0.103 ± 0.14.
Work on P222E yielded an STK11 functional score of 0.0466 ± 0.58.
N412P was tested, and the STK11 functional score was 1.56 ± 0.35.
For L45Y, the STK11 functional score was 0.913 ± 0.38.
E70R showed an STK11 functional score of 1.67 ± 0.32.
With D348A the STK11 functional score was 1.54 ± 0.24.
In the case of V368T, the STK11 functional score is reported as 1.56 ± 0.18.
With D350H the STK11 functional score was 1.27 ± 0.29.
In the case of D350P, the STK11 functional score is reported as 1.48 ± 0.16.
F354C showed an STK11 functional score of 0.742 ± 0.34.
Work on F354G yielded an STK11 functional score of 1.09 ± 0.23.
In the case of D176V, the STK11 functional score is reported as 0.0775 ± 0.082.
D176E was tested, and the STK11 functional score was 0.211 ± 0.1.
I88E was tested, and the STK11 functional score was 1.53 ± 0.18.
Variant I88R has an STK11 functional score of 1.65 ± 0.19.
G227F was tested, and the STK11 functional score was 1.14 ± 0.12.
For P254W, the STK11 functional score was 0.882 ± 0.1.
Variant D141L has an STK11 functional score of 1.63 ± 0.23.
E376H was tested, and the STK11 functional score was 0.914 ± 0.14.
Variant S307I has an STK11 functional score of 1.02 ± 0.091.
In the case of S307W, the STK11 functional score is reported as 1.47 ± 0.15.
Variant M136P has an STK11 functional score of -0.132 ± 0.082.
In the case of D194L, the STK11 functional score is reported as -0.0619 ± 0.096.
In the case of D194H, the STK11 functional score is reported as -0.252 ± 0.32.
M11C gave an STK11 functional score of 1.69 ± 0.36.
With C132H the STK11 functional score was 1.16 ± 0.21.
Work on Q371A yielded an STK11 functional score of 1.6 ± 0.27.
L50R showed an STK11 functional score of 1.47 ± 0.33.
Variant G188R has an STK11 functional score of 1.19 ± 0.56.
For P323G, the STK11 functional score was 1.13 ± 0.11.
Work on P323E yielded an STK11 functional score of 1.56 ± 0.27.
With P323S the STK11 functional score was 1.3 ± 0.5.
For D115R, the STK11 functional score was 1.52 ± 0.27.
C278H was tested, and the STK11 functional score was 1.06 ± 0.35.
I79P gave an STK11 functional score of 0.0986 ± 0.19.
For V338W, the STK11 functional score was 0.683 ± 0.13.
V338I showed an STK11 functional score of 1.47 ± 0.31.
Work on A410H yielded an STK11 functional score of 1.23 ± 0.54.
P324T was tested, and the STK11 functional score was 1.15 ± 0.23.
For L386T, the STK11 functional score was 1.6 ± 0.29.
With S404I the STK11 functional score was 1.22 ± 0.13.
Work on G268C yielded an STK11 functional score of 1.25 ± 0.42.
Work on A225Y yielded an STK11 functional score of 0.922 ± 0.45.
Work on K235T yielded an STK11 functional score of 0.534 ± 0.21.
K235G showed an STK11 functional score of 1.28 ± 0.35.
Work on M127H yielded an STK11 functional score of 1.63 ± 0.2.
M127E was tested, and the STK11 functional score was 1.59 ± 0.1.
For S283R, the STK11 functional score was 1.29 ± 0.41.
For L400R, the STK11 functional score was 1.37 ± 0.26.
Work on S325W yielded an STK11 functional score of 0.629 ± 0.13.
V390E showed an STK11 functional score of 1.44 ± 0.34.
For V390F, the STK11 functional score was 1.18 ± 0.4.
With E65C the STK11 functional score was 1.07 ± 0.12.
P413W gave an STK11 functional score of 0.886 ± 0.37.
Work on V63N yielded an STK11 functional score of 1.14 ± 0.097.
Work on V63C yielded an STK11 functional score of 1.4 ± 0.54.
Y246I showed an STK11 functional score of 1.13 ± 0.095.
For L160I, the STK11 functional score was 1.17 ± 0.12.
For L160W, the STK11 functional score was 0.0949 ± 0.08.
Work on E121P yielded an STK11 functional score of 1.66 ± 0.23.
Variant E121G has an STK11 functional score of 1.18 ± 0.26.
A76R was tested, and the STK11 functional score was -0.417 ± 0.081.
L285Q was tested, and the STK11 functional score was -0.0107 ± 0.26.
H154M gave an STK11 functional score of 0.597 ± 0.088.
Variant H154W has an STK11 functional score of 0.87 ± 0.091.
In the case of H154P, the STK11 functional score is reported as -0.204 ± 0.089.
With E374P the STK11 functional score was 1.42 ± 0.26.
S421T showed an STK11 functional score of 1.12 ± 0.41.
I248A was tested, and the STK11 functional score was 1.15 ± 0.26.
In the case of S142T, the STK11 functional score is reported as 1.47 ± 0.18.
In the case of S142M, the STK11 functional score is reported as 0.933 ± 0.16.
G251R was tested, and the STK11 functional score was 0.411 ± 0.19.
G233C was tested, and the STK11 functional score was 1.43 ± 0.097.
Work on P339Q yielded an STK11 functional score of 1.52 ± 0.16.
In the case of P339S, the STK11 functional score is reported as 1.42 ± 0.2.
T185W showed an STK11 functional score of 0.387 ± 0.09.
With T185R the STK11 functional score was 0.992 ± 0.21.
In the case of P280L, the STK11 functional score is reported as 1.32 ± 0.19.
Work on P280V yielded an STK11 functional score of 1.41 ± 0.096.
P280D gave an STK11 functional score of 1.45 ± 0.44.
Work on I267R yielded an STK11 functional score of 1.01 ± 0.33.
W239P was tested, and the STK11 functional score was -0.0966 ± 0.095.
For D277H, the STK11 functional score was 1.36 ± 0.54.
D277N was tested, and the STK11 functional score was 1.15 ± 0.65.
D277I gave an STK11 functional score of 1.45 ± 0.31.
Y272A gave an STK11 functional score of 1.33 ± 0.22.
For P38M, the STK11 functional score was 1.09 ± 0.92.
Work on R86I yielded an STK11 functional score of 1.24 ± 0.1.
In the case of K269L, the STK11 functional score is reported as 1.45 ± 0.2.
For K269Y, the STK11 functional score was 1.33 ± 0.36.
Work on P326C yielded an STK11 functional score of 1.34 ± 0.39.
W308L showed an STK11 functional score of -0.172 ± 0.075.
With D68P the STK11 functional score was 1.08 ± 0.12.
In the case of D365H, the STK11 functional score is reported as 1.34 ± 0.34.
F148L showed an STK11 functional score of 0.829 ± 0.095.
Variant F148N has an STK11 functional score of 0.0347 ± 0.095.
A93W showed an STK11 functional score of 1.63 ± 0.1.
A93G showed an STK11 functional score of 0.685 ± 0.085.
H27P showed an STK11 functional score of 1.35 ± 0.35.
M289W gave an STK11 functional score of -0.296 ± 0.059.
Variant P6C has an STK11 functional score of 1.1 ± 0.49.
With E57S the STK11 functional score was 1.17 ± 0.35.
G61E showed an STK11 functional score of 0.195 ± 0.23.
N380T showed an STK11 functional score of 1.31 ± 0.45.
N380Q showed an STK11 functional score of 1.47 ± 0.34.
S232R gave an STK11 functional score of 1.39 ± 0.17.
S232L was tested, and the STK11 functional score was 0.996 ± 0.2.
With V110L the STK11 functional score was 1.23 ± 0.14.
With I300L the STK11 functional score was 1.25 ± 0.1.
Work on L85E yielded an STK11 functional score of 1.7 ± 0.4.
Work on L85V yielded an STK11 functional score of 1.15 ± 0.15.
Variant L286P has an STK11 functional score of -0.27 ± 0.087.
Y362F gave an STK11 functional score of 1.05 ± 0.12.
In the case of R211M, the STK11 functional score is reported as 1.42 ± 0.11.
L17G was tested, and the STK11 functional score was 1.53 ± 0.25.
L102M gave an STK11 functional score of 0.857 ± 0.19.
With T328A the STK11 functional score was 1.62 ± 0.16.
With F12L the STK11 functional score was 1.23 ± 0.68.
In the case of R147Y, the STK11 functional score is reported as 1.47 ± 0.14.
For R147P, the STK11 functional score was 0.188 ± 0.08.
E351G showed an STK11 functional score of 1.33 ± 0.12.
T13C was tested, and the STK11 functional score was 1.59 ± 0.25.
T13L gave an STK11 functional score of 0.906 ± 0.11.
L245V gave an STK11 functional score of 0.345 ± 0.093.
M392S was tested, and the STK11 functional score was 1.52 ± 0.26.
I177P gave an STK11 functional score of 0.166 ± 0.58.
In the case of Q305A, the STK11 functional score is reported as 1.33 ± 0.15.
In the case of P411A, the STK11 functional score is reported as 1.04 ± 0.31.
For P411M, the STK11 functional score was 1.58 ± 0.23.
Work on A295L yielded an STK11 functional score of 0.756 ± 0.55.
L117E showed an STK11 functional score of 1.45 ± 0.19.
L117F was tested, and the STK11 functional score was 0.858 ± 0.21.
R383L showed an STK11 functional score of 1.42 ± 0.25.
Variant L341C has an STK11 functional score of 1.38 ± 0.17.
Work on L341I yielded an STK11 functional score of 1.56 ± 0.18.
With L341D the STK11 functional score was 1.6 ± 0.17.
For H174F, the STK11 functional score was 0.138 ± 0.044.
K78Y showed an STK11 functional score of -0.374 ± 0.076.
Work on K78A yielded an STK11 functional score of -0.0486 ± 0.23.
For E256Q, the STK11 functional score was 1.47 ± 0.56.
E396F showed an STK11 functional score of 1.41 ± 0.2.
With A318T the STK11 functional score was 1.17 ± 0.67.
A318I gave an STK11 functional score of 1.49 ± 0.16.
In the case of P281S, the STK11 functional score is reported as 0.965 ± 0.17.
P281L was tested, and the STK11 functional score was 1.18 ± 0.11.
For P281K, the STK11 functional score was 1.26 ± 0.79.
With L190G the STK11 functional score was 0.073 ± 0.17.
K82D gave an STK11 functional score of 1.17 ± 0.19.
N226R gave an STK11 functional score of 1.51 ± 0.2.
N226I gave an STK11 functional score of 0.495 ± 0.48.
N226L gave an STK11 functional score of 1.08 ± 0.2.
Work on N226W yielded an STK11 functional score of 1.65 ± 0.24.
N181C gave an STK11 functional score of -0.0246 ± 0.18.
With N181F the STK11 functional score was -0.0897 ± 0.042.
With T336C the STK11 functional score was 1.27 ± 0.34.
For R75A, the STK11 functional score was 1.68 ± 0.19.
S59V was tested, and the STK11 functional score was 1.55 ± 0.22.
With D30H the STK11 functional score was 1.31 ± 0.68.
Work on G381C yielded an STK11 functional score of 1.1 ± 0.44.
N259G showed an STK11 functional score of 0.492 ± 0.49.
Work on I192W yielded an STK11 functional score of 0.0777 ± 0.23.
For I192T, the STK11 functional score was -0.0391 ± 0.45.
For D258R, the STK11 functional score was 1.29 ± 0.39.
G155A was tested, and the STK11 functional score was 1.27 ± 0.57.
